Laboratory results published in patent US20250043302A1, “MUTATED HYDROXYPHENYLPYRUVATE DIOXYGENASE POLYPEPTIDE, AND CODING GENE AND USE THEREOF” (BEIJING DABEINONG BIOTECHNOLOGY CO., LTD., priority 2021, published 2025).

Columns and labels:
Format in all cases: in vivo
[1] = test system: Arabidopsis thaliana T1 plants; test: Isoxaflutole tolerance of transgenic Arabidopsis thaliana T1 plants (spray, bleached leaf area grade, damage score); parameters: Scores (pesticide damage): scale not given here; settings: spray, Arabidopsis thaliana T1 plants; for Classification and statistics of the grade of pesticide damage: Grade 0 (number of plants) / Classification and statistics of the grade of pesticide damage: Grade 1 (number of plants) / Classification and statistics of the grade of pesticide damage: Grade 2 (number of plants) / Classification and statistics of the grade of pesticide damage: Grade 3 (number of plants): 16 plants
Summary of the method: (§1)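 Damage graded 0–3 from the proportion of bleached leaf area 7 days after spraying. Plants were glufosinate-selected T1 lines, 18 days after sowing, plus vector and wild-type controls. Rates: mesotrione 52.5–420, isoxaflutole 35–280, topramezone 25–200 g ai/ha, with water (0×).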

[2] = test system: Arabidopsis thaliana T1 plants; test: Mesotrione tolerance of transgenic Arabidopsis thaliana T1 plants (spray, bleached leaf area grade, damage score); parameters: Scores: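 damage score 0-100 computed as Σ(N×S)/(T×M)×100 over grades 0-3 with higher meaning more damage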; settings: Arabidopsis thaliana T1 plants; for Grade 0 (classification and statistics of the grade of pesticide damage; number of plants) / Grade 1 (classification and statistics of the grade of pesticide damage; number of plants) / Grade 2 (classification and statistics of the grade of pesticide damage; number of plants) / Grade 3 (classification and statistics of the grade of pesticide damage; number of plants): 16 plants
Summary of the method: as §1

[3] = test system: Arabidopsis thaliana T1 plants; test: Topramezone tolerance of transgenic Arabidopsis thaliana T1 plants (spray, bleached leaf area grade, damage score); settings: 7 DAT, Table 4; for Classification and statistics of the grade of pesticide damage: Grade 0 / Classification and statistics of the grade of pesticide damage: Grade 1 / Classification and statistics of the grade of pesticide damage: Grade 2 / Classification and statistics of the grade of pesticide damage: Grade 3: number of plants; for Scores: pesticide damage score 0-100
Summary of the method: as §1

[4] = isoxaflutole 35 g ai/ha (0.5x field concentration)
[5] = isoxaflutole 70 g ai/ha (1x field concentration)

B1: GsHPPDm-F372A-02: nucleotide sequence encoding Gossypium hirsutum HPPD with F372A; vector DBN11739 (nucleic acid)
DNA: ATGGTTCAAACAAATCAATCTGGTTCTGGGAATGATTTCAAGCTGGTTGGTTTCTCAAATTTTGTGCGTAGCAATCCCAAATCAGACCGCTTCACGGTCAAGAGATTCCACCACATTGAATTTTGGTGCACTGATGCCACTAATGTGGCGAGGAGGTTTTCATGGGGTTTAGGGATGCAGTTCGTCGCCAAGAGTGACCTCTCCACAGGAAATTTGACGCATGCAAGCTACCTGCTGCGGAGCCGCGACTTGAATTTCCTGTTTACAGCACCATATTCACCCAGTATTGCAGTTGCTCAAAACCTTTCGCCACAAAGCACTGCTTCCATACCTTCATTTGATCACTCGCTTTGTCGGTCCTTTGCTGCAACACATGGACTTGGCGTCAGAGCAATTGCCATCGAGGTGGACGACGCCGAAACTGCCTTCACCACGAGCGTGACACATGGCGCGCTCCCTTTTTGTCCACCAACACCACTAGGAGATGTGGCTACAATTGCTGAAGTTAAATTATATGGTGATGTTGTGCTCAGATATGTTTCTTACACCACAACCATCAACTCCGACCATGATTTTCTGCCTGGTTTTGAGAAGATTGAAGATACTCTATCGTATCCTTTGGATTATGGCCTGCGTCGGCTCGATCATGCTGTTGGCAACGTACCTGAATTAGGTCCTGCTGTATCTTATGTGAAATCTTTTACTGGGTTCCATGAGTTTGCAGAGTTCACCGCTGAGGATGTAGGAACAAGTGAATCTGGGCTGAACTCAGTTGTTTTGGCCAACAATGAGGAAATGGTCCTCTTACCAATGAACGAGCCGGTGTTCGGCACTAAGCGCAAATCTCAAATACAGACCTACTTGGAGCACAATGAAGGAGCTGGTGTGCAGCACCTCGCCCTCGTCTCGGAGGACATCTTCAAAACTTTAAGGGAGATGAGGAAACGATCCTTTGTGGGAGGATTTGAATTCATGCCTTCTCCGCCGCCGACATACTACAAGAAGCTCAAGCAGCGCGCGGGGGACATTTTGTCTGATGAGCAGATCAAGGAGTGTGAAGAGCTTGGGATTCTTGTTGATAGAGATGATCAAGGAACGCTTCTGCAGATAGCCACCAAGCCCGTCGGCGACCGGCCTACTATATTCATTGAGATCATCCAGAGAATTGGTTGCATGGTGAAGGATGAAGAAGGGAAACAGTACCAGAAGGGCGGCTGCGGCGGGTTTGGAAAAGGAAACTTCAGTGAGCTGTTTAAAAGTATAGAGGAGTATGAAAAGAGCTTGGAAGCAAAACAATCACAAAATCCATGA
modifications: GsHPPDm-F372A-02 Nucleotide Sequence
notes: vector DBN11739
Resistance evaluation [1, 4]: Moderately
Scores (pesticide damage) [1, 4]: 33
Classification and statistics of the grade of pesticide damage: Grade 0 (number of plants) [1, 4]: 3
Classification and statistics of the grade of pesticide damage: Grade 1 (number of plants) [1, 4]: 10
Classification and statistics of the grade of pesticide damage: Grade 2 (number of plants) [1, 4]: 3
Classification and statistics of the grade of pesticide damage: Grade 3 (number of plants) [1, 4]: 0
Resistance evaluation [1, 5]: Non-resistant
Scores (pesticide damage) [1, 5]: 100
Classification and statistics of the grade of pesticide damage: Grade 0 (number of plants) [1, 5]: 0
Classification and statistics of the grade of pesticide damage: Grade 1 (number of plants) [1, 5]: 0
Classification and statistics of the grade of pesticide damage: Grade 2 (number of plants) [1, 5]: 0
Classification and statistics of the grade of pesticide damage: Grade 3 (number of plants) [1, 5]: 16
Resistance evaluation ([2]; mesotrione 52.5 g ai/ha): Poorly resistant
Scores ([2]; mesotrione 52.5 g ai/ha): 54
Grade 0 (classification and statistics of the grade of pesticide damage; number of plants) ([2]; mesotrione 52.5 g ai/ha): 0
Grade 1 (classification and statistics of the grade of pesticide damage; number of plants) ([2]; mesotrione 52.5 g ai/ha): 8
Grade 2 (classification and statistics of the grade of pesticide damage; number of plants) ([2]; mesotrione 52.5 g ai/ha): 6
Grade 3 (classification and statistics of the grade of pesticide damage; number of plants) ([2]; mesotrione 52.5 g ai/ha): 2
Resistance evaluation ([2]; mesotrione 105 g ai/ha): Non-resistant
Scores ([2]; mesotrione 105 g ai/ha): 100
Grade 0 (classification and statistics of the grade of pesticide damage; number of plants) ([2]; mesotrione 105 g ai/ha): 0
Grade 1 (classification and statistics of the grade of pesticide damage; number of plants) ([2]; mesotrione 105 g ai/ha): 0
Grade 2 (classification and statistics of the grade of pesticide damage; number of plants) ([2]; mesotrione 105 g ai/ha): 0
Grade 3 (classification and statistics of the grade of pesticide damage; number of plants) ([2]; mesotrione 105 g ai/ha): 16
Classification and statistics of the grade of pesticide damage: Grade 0 ([3]; topramezone 25 g ai/ha (1×)): 16
Classification and statistics of the grade of pesticide damage: Grade 1 ([3]; topramezone 25 g ai/ha (1×)): 0
Classification and statistics of the grade of pesticide damage: Grade 2 ([3]; topramezone 25 g ai/ha (1×)): 0
Classification and statistics of the grade of pesticide damage: Grade 3 ([3]; topramezone 25 g ai/ha (1×)): 0
Classification and statistics of the grade of pesticide damage: Grade 0 ([3]; topramezone 100 g ai/ha (4×)): 0
Classification and statistics of the grade of pesticide damage: Grade 1 ([3]; topramezone 100 g ai/ha (4×)): 0
Classification and statistics of the grade of pesticide damage: Grade 2 ([3]; topramezone 100 g ai/ha (4×)): 0
Classification and statistics of the grade of pesticide damage: Grade 3 ([3]; topramezone 100 g ai/ha (4×)): 16
Scores ([3]; topramezone 25 g ai/ha (1×)): 0
Scores ([3]; topramezone 100 g ai/ha (4×)): 100
Resistance evaluation ([3]; topramezone 25 g ai/ha (1×)): highly
Resistance evaluation ([3]; topramezone 100 g ai/ha (4×)): non-resistant (non-resistant plants (scores 68-100))
